These results are taken from PMC8636100, “Peptibody Based on FGFR1-Binding Peptides From the FGF4 Sequence as a Cancer-Targeting Agent” (Frontiers in Pharmacology, 2021).

Holding throughout (settings): both partners purified
Assay [1] deals with T1, extracellular domain (ECD) of FGFR1 fused to the Fc domain of human IgG1 (UniProt P11362 22-376, HiLyte488 dye (labelled form, used for the membrane overlay of FGFs and the PepSpot assay)).
T1 construct: FGFR1 (fibroblast growth factor receptor 1), extracellular domain; Unlabelled in the pull-down (held on Protein A resin) and in SPR (amine-coupled); also called FGFR1-Fc; source: recombinant, produced as described previously (Sokolowska-Wedzina et al., 2014)
T1 sequence (looked up): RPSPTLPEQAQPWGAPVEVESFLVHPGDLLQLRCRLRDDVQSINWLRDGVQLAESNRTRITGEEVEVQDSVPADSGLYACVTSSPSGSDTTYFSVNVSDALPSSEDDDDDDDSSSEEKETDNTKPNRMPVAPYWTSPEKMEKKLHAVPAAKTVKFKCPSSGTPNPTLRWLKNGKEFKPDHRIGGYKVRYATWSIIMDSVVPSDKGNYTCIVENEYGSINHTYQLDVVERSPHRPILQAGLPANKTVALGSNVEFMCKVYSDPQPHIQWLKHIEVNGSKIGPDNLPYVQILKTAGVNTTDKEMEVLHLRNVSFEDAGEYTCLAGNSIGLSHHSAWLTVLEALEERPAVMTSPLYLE
The experiment in a line: SPR; Biacore 3000, 25°C, PBS with 0.05% Tween20, 0.1% BSA, 0.02% NaN3, pH 7.4; FGFR1 ECD-Fc amine-coupled on CM5 at 8800 RU; peptibodies 0.15-4.8 μM or FGF4 75-600 nM injected at 30 μl/min; steady-state affinity analysis for the peptibodies.

Assay [2] deals with T1, extracellular domain (ECD) of FGFR1 …. In words: affinity purification with mass spectrometry; chymotryptic peptides of FGF4 incubated 1 h at 4°C with ECD_FGFR1-Fc or, in parallel, Fc domain immobilized on rProtein A Fast Flow resin; washed (0.1 M NaCl, phosphate); eluted with 0.1 M sodium citrate pH 3.5; peptides identified by MS.
Assay [3] shares this target. The experiment in a line: peptide or protein array; PepSpot: 15-residue peptides spanning FGF4 covalently bound to a cellulose membrane; blocked with 3% BSA in TBS-T; probed with HiLyte488-labelled FGFR1-Fc or Fc domain (0.1 µg/ml in blocking buffer) overnight at 4°C.

No end group written: not given here.

B1: peptibodyF4_1 (Fc fusion)
chain: GIALSKNGKTKKGNRVSPTMKVTHFLPRL
notes: additional glycine residue as a spacer between the Fc domain and the targeting peptide; peptide F4_1, FGF4 residues 179-206; Peptide fused at the C-terminus of the Fc domain of human IgG1 (vector pLEV113); Labelled with DyLite650 for flow cytometry; not shown: Fc (human IgG1), N-terminal, kept
By Kd is commonly meant a measure of binding affinity in units of concentration. The molecule B1 registered a Kd in assay [1] of 2990 nM.

B2: chymotryptic peptide of FGF4, region 179–206 (peptide)
peptide: IALSKNGKTKKGNRVSPTMKVTHFLPRL
notes: FGF4 residues 179-206; also called peptide F4_1; 4_1; source: digest of recombinant FGF4 with immobilized bovine chymotrypsin
B2: the binding result in assay [2] is reported as “binds”.

B3: FGF4 (ligand, UniProt P08620 31-206, looked up)
chain: APTAPNGTLEAELERRWESLVALSLARLPVAAQPKEAAVQSGAGDYLLGIKRLRRLYCNVGIGFHLQALPDGRIGGAHADTRDSLLELSPVERGVVSIFGVASRFFVAMSSKGKLYGSPFFTDECTFKEILLPNNYNAYESYKYPGMFIALSKNGKTKKGNRVSPTMKVTHFLPRL
notes: FGF4; Denatured by SDS-PAGE and held on PVDF in the overlay; native analyte in SPR; also called recombinant FGF4; fibroblast growth factor 4; source: recombinant, provided by Marta Minkiewicz and Martyna Sochacka from Protein Engineering Group
B3 came in with a Kd in assay [1] of 65.7 nM.

B4: PepSpot peptide no. 20 of FGF4 (peptide)
peptide: KNGKTKKGNRVSPTM
modifications: also: covalently bound to cellulose-β-alanine membrane
notes: source: synthetic peptide on cellulose membrane (PepSpot, JPT, Berlin)
With B4, the binding result in assay [3] was “binds”.

B5: PepSpot peptide no. 15 of FGF4 (peptide)
peptide: SRFFVAMSSKGKLYG
modifications: also: covalently bound to cellulose-β-alanine membrane
notes: also called peptide 15; source: synthetic peptide on cellulose membrane (PepSpot, JPT, Berlin)
Take B5: the binding result in assay [3] is on record as “binds”.

B6: chymotryptic peptide of FGF4, region 136–150 (peptide)
peptide: FVAMSSKGKLYGSPF
notes: FGF4 residues 136-150; also called peptide F4_2; 4_2; source: digest of recombinant FGF4 with immobilized bovine chymotrypsin
Take B6: the binding result in assay [2] is “binds”.

B7: PepSpot peptide no. 19 of FGF4 (peptide)
peptide: KYPGMFIALSKNGKT
modifications: also: covalently bound to cellulose-β-alanine membrane
notes: also called peptide 19; source: synthetic peptide on cellulose membrane (PepSpot, JPT, Berlin)
Turning to B7, the binding result in assay [3] is listed as “binds”.

B8: PepSpot peptide no. 21 of FGF4 (peptide)
peptide: RVSPTMKVTHFLPRL
modifications: also: covalently bound to cellulose-β-alanine membrane
notes: also called peptide 21; source: synthetic peptide on cellulose membrane (PepSpot, JPT, Berlin)
For the molecule B8, the binding result in assay [3] is recorded as “binds”.

B9: peptibodyF4_3 (Fc fusion)
chain: GLRRLYCNVGIGFHLQ
notes: additional glycine residue as a spacer between the Fc domain and the targeting peptide; peptide F4_3, FGF4 residues 83-97; Peptide fused at the C-terminus of the Fc domain of human IgG1 (vector pLEV113); not shown: Fc (human IgG1), N-terminal, kept
Consider B9, for which, in assay [1], the Kd is 1090 nM.

B10: PepSpot peptide no. 10 of FGF4 (peptide)
peptide: LRRLYCNVGIGFHLQ
modifications: also: covalently bound to cellulose-β-alanine membrane
notes: also called peptide F4_3; 4_3; source: synthetic peptide on cellulose membrane (PepSpot, JPT, Berlin)
Consider B10, for which the binding result in assay [3] is listed as “binds”.
